According to article PMC3192050, “Structural Basis for Specific Binding of Human MPP8 Chromodomain to Histone H3 Methylated at Lysine 9” (PLoS ONE, 2011):
Each block holds one molecule with its values, some of them ahead of it.

Assays:
[1] = test system: hMpp8 chromodomain mutant, Glu101 mutated to proline; test: Histone H3K27 peptide pulldown, hMPP8 chromodomain mutant with Glu101 mutated to proline; assay type: binding, human; conditions: Fig. S1B
From the text: (§1) It is noteworthy that the sequence motif of H3K27 is similar to H3K9 tail (KAARK^27S versus QTARK^9S). However, methylated histone H3K27 cannot interact with hMPP8 chromodomain. To explain why hMPP8 specifically recognizes methylated H3K9, we built a mutant model that hMPP8 binds to methylated H3K27. We mutated residues Gln5 and Thr6 of the QTARK^9S motif to KA to generate a motif of KAARK^9S, which shared the same amino sequence around the K27 site in histone H3. […] To further validate the hypothesis, hMpp8 chromodomain mutants were designed to rescue the binding ability to H3K27me3. Based on our structures, residues Lys100, Glu101 and Val102 were mutated to proline, respectively, to generate enough space where the side chain of Lys5 can insert.
(§2) Supplementary file pone.0025104.s001.tif: Figure S1 hMPP8 specifically recognizes methylated H3K9 rather than H3K27. (A) A mutant structure model for hMPP8 binds to KAARK(me3)S histone motif. Gln5 and Thr6 of the QTARK^9S motif were mutated to KA in this model. (B) Histone H3K27 peptide pulldowns with proteins of wild type hMpp8 chromodomain and indicated mutants, respectively. […] Molecular mass was measured by size exclusion. (F) Binding affinity of hMPP8 chromodomain to H3K4me3 (left panel, measured by ITC method) and H3K27me3 peptide (right panel, measured by SPR method). […]

[2] = test system: hMpp8 chromodomain mutant, Lys100 mutated to proline; test: Histone H3K27 peptide pulldown, hMPP8 chromodomain mutant with Lys100 mutated to proline; assay type: binding, human; conditions: Fig. S1B
From the text: as §1, §2

hMPP8 chromodomain = target: T1, hMPP8 chromodomain (Homo sapiens, UniProt Q99549); test: Surface plasmon resonance (SPR) binding of histone peptides to hMPP8 chromodomain; conditions: BIAcore3000, 14°C, synthetic peptide residues 19 to 33, 150 mM NaCl, 20 mM Tris, pH 8.0, 1 mM DTT, Fig. S1F right panel
T1 construct: The chromodomain of human MPP8 (residue 56–116) was inserted into a pET28a-MHL vector; His-tag (cleaved yes); made in house; host or cells: E. coli BL21 (DE3) Codon plus RIL
T1 sequence (Q99549 56-116): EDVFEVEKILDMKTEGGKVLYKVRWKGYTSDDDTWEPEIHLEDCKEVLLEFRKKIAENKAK
Method: The binding affinity of hMPP8 chromodomain and histone peptides were determined at 14°C using BIAcore3000 instruments. The biotinylated peptides were immobilized on a streptavidin-coated biosensor chip (SA-Chip). All experiments were carried out in the continuous-follow buffer (150 mM NaCl, 20 mM Tris, pH 8.0, 1 mM DTT). The injected protein sample was flowed for 3 min over the peptide coated SA-Chips at a follow rate of 30 ml/min and the change of response unit (RU) was recorded. Protein dissociation was monitored for 3 min by following the continuous-follow buffer at a follow rate of 30 ml/min over the SA-Chips. The KD was determined by global nonlinear regression fitting of the association and dissociation curves according to the Langmuir binding isotherm model.

[3] = target: human MPP8 (M-phase phosphoprotein 8) chromodomain (human) (UniProt Q99549); test: SEC; gel filtration of hMPP8 chromodomain; column buffer 20 mM Tris (pH 8.0), 400 mM NaCl
[4] = target: human MPP8 (M-phase phosphoprotein 8) chromodomain (human) (UniProt Q99549); test: SEC; size exclusion of hMPP8 chromodomain in the presence or in the absence of H3K9me3 peptide
[5] = Size exclusion chromatography, oligomerization state in solution; assay type: physicochemical; conditions: 20 mM Tris (pH 8.0), 400 mM NaCl, Fig. 1D
From the text: Figure 1 Overall structure of hMPP8 chromodomain. (A) Sequence alignment of chromodomains of human MPP8, Drosophila HP1 and Drosophila Polycomb. Secondary structural elements (arrows for β strands and rectangles for α helices) are indicated, η represent 3_10 helix. Methylated H3K9 binding residues are marked by stars. Residues involved in dimerization of human Mpp8 and Drosophila Polycomb are marked by diamonds and triangles, respectively. The alignment was created with Espript (http://espript.ibcp.fr/Espript/Espript). (B) Cartoon representation of the crystal structure of hMPP8 chromodomain. The two subunits of the homodimer are colored in cyan and green, respectively, and the secondary structure regions in both proteins are marked. (C) Interactions between the two subunits of the hMPP8 chromodomain homodimer. The dimer interface is formed by strand β2 through an antiparallel arrangement. (D) Gel filtration of hMPP8 chromodomain (left panel). The column buffer was 20 mM Tris (pH 8.0), 400 mM NaCl. The molecular weight of hMPP8 chromodomain monomer was measured using tricine-SDS-PAGE (right panel). TEXT PRINTED IN THE PICTURE: (D) no label printed: 100.09 ml (13.6 kDa)
To determine the oligomerization state of hMPP8 chromodomain in solution, size exclusion experiment was performed. […] The molecular weight of hMPP8 chromodomain monomer is about 8.0 kD. […]

binding in peptide pulldown [1]: able to bind H3K27me3 peptide weakly
binding in peptide pulldown [2]: able to bind H3K27me3 peptide weakly
binding (SPR) (hMPP8 chromodomain): does not exhibit detectable binding
Molecule: H3K27me3: synthetic H3K27me3 (residues 19 to 33) peptide (QLATKAARKSAPATG; K27 trimethylation; UniProt P68431 20-34, looked up, fragment)

stoichiometry N [3]: 2
stoichiometry N [4]: 2
Molecule: human MPP8 (M-phase phosphoprotein 8) chromodomain (from UniProt Q99549 56-116) (domain or fragment)

B1: hMPP8 chromodomain: recombinant chromodomain of human MPP8 (residue 56–116), expressed in BL21 (DE3) Codon plus RIL (protein, UniProt Q99549 56-116, looked up, fragment)
chain: T1 sequence (Q99549 56-116)
modifications: chromodomain
notes: recombinant chromodomain of human MPP8 (residue 56–116), expressed in BL21 (DE3) Codon plus RIL
oligomerization state in solution ([5]; free form): homodimer
apparent molecular weight in solution ([5]; monomer about 8.0 kD): 13.6 kD
